# Laboratory results from PMC2151650.
# Target: triadin (rabbit) (UniProt Q28820)
# Assay: co-IP
# Sequence of triadin (rabbit) (Q28820 whole entry): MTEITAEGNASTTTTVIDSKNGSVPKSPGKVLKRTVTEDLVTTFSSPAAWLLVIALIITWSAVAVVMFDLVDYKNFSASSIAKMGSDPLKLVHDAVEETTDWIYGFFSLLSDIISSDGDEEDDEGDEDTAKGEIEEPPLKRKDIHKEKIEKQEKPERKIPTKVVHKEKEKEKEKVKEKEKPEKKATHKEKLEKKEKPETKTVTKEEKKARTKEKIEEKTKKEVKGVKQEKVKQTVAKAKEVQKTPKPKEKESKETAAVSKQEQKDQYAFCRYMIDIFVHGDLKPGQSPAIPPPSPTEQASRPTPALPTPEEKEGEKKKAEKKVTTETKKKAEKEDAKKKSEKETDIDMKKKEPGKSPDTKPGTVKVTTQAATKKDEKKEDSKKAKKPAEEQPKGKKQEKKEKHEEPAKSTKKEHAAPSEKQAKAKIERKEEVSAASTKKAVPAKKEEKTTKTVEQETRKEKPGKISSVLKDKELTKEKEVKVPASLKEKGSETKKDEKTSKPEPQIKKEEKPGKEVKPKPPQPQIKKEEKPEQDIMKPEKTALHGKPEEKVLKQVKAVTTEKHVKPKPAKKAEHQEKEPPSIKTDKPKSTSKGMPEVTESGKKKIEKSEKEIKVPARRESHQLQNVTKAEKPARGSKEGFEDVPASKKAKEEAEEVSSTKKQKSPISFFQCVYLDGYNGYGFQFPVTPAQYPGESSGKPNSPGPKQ
substance,measurement,value
"RyR1 D4878A/D4907A, P11716 1-5037 (natural protein)",percent reduction in triadin binding against WT RyR1,50%
